Key:
[1] = target: purified complement component C3
[2] = target: T1, purified human fibrinogen, depleted of fibronectin and plasminogen, P02671
T1 chain 1: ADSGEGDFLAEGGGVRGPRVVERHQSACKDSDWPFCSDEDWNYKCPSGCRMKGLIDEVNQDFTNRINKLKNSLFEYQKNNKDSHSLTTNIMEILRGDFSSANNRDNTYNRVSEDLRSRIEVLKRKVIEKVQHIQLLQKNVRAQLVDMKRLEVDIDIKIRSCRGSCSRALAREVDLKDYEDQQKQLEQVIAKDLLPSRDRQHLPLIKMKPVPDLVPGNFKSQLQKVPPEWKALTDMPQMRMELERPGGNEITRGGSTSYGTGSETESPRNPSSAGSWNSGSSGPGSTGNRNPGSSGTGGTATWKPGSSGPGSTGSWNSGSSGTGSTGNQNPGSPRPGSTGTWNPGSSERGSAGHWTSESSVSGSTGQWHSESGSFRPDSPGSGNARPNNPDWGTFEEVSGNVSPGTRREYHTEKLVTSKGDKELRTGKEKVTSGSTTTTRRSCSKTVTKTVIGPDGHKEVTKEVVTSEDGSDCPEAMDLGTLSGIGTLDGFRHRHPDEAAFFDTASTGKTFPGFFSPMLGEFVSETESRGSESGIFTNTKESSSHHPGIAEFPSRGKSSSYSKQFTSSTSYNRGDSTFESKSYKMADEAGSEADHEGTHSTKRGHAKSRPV
T1 chain 2: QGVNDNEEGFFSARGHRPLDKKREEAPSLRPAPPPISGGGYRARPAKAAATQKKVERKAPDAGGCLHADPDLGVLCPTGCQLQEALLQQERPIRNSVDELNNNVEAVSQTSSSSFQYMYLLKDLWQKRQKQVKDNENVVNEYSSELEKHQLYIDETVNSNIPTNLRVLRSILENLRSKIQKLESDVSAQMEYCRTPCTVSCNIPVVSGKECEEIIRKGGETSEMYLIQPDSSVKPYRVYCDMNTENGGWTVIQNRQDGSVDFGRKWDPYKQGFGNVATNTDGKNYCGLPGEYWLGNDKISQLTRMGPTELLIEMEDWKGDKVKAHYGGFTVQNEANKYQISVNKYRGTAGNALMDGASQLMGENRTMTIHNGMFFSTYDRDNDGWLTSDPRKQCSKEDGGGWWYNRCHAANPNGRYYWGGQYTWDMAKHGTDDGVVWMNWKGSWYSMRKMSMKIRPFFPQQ
T1 chain 3: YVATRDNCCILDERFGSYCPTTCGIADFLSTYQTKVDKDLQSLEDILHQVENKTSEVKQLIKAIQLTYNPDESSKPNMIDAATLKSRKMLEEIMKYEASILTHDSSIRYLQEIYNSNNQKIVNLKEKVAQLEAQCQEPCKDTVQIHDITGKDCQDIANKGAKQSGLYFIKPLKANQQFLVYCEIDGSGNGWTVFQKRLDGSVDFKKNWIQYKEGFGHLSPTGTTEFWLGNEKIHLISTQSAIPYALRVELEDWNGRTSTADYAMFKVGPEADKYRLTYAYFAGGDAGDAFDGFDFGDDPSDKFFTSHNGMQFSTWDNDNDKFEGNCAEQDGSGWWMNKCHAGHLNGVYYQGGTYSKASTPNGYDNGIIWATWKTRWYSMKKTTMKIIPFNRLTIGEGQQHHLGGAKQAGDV

[3] = target: purified human fibronectin, P02751
Chain of purified human fibronectin, P02751 (P02751 other isoform, or with tags, fused parts or gaps): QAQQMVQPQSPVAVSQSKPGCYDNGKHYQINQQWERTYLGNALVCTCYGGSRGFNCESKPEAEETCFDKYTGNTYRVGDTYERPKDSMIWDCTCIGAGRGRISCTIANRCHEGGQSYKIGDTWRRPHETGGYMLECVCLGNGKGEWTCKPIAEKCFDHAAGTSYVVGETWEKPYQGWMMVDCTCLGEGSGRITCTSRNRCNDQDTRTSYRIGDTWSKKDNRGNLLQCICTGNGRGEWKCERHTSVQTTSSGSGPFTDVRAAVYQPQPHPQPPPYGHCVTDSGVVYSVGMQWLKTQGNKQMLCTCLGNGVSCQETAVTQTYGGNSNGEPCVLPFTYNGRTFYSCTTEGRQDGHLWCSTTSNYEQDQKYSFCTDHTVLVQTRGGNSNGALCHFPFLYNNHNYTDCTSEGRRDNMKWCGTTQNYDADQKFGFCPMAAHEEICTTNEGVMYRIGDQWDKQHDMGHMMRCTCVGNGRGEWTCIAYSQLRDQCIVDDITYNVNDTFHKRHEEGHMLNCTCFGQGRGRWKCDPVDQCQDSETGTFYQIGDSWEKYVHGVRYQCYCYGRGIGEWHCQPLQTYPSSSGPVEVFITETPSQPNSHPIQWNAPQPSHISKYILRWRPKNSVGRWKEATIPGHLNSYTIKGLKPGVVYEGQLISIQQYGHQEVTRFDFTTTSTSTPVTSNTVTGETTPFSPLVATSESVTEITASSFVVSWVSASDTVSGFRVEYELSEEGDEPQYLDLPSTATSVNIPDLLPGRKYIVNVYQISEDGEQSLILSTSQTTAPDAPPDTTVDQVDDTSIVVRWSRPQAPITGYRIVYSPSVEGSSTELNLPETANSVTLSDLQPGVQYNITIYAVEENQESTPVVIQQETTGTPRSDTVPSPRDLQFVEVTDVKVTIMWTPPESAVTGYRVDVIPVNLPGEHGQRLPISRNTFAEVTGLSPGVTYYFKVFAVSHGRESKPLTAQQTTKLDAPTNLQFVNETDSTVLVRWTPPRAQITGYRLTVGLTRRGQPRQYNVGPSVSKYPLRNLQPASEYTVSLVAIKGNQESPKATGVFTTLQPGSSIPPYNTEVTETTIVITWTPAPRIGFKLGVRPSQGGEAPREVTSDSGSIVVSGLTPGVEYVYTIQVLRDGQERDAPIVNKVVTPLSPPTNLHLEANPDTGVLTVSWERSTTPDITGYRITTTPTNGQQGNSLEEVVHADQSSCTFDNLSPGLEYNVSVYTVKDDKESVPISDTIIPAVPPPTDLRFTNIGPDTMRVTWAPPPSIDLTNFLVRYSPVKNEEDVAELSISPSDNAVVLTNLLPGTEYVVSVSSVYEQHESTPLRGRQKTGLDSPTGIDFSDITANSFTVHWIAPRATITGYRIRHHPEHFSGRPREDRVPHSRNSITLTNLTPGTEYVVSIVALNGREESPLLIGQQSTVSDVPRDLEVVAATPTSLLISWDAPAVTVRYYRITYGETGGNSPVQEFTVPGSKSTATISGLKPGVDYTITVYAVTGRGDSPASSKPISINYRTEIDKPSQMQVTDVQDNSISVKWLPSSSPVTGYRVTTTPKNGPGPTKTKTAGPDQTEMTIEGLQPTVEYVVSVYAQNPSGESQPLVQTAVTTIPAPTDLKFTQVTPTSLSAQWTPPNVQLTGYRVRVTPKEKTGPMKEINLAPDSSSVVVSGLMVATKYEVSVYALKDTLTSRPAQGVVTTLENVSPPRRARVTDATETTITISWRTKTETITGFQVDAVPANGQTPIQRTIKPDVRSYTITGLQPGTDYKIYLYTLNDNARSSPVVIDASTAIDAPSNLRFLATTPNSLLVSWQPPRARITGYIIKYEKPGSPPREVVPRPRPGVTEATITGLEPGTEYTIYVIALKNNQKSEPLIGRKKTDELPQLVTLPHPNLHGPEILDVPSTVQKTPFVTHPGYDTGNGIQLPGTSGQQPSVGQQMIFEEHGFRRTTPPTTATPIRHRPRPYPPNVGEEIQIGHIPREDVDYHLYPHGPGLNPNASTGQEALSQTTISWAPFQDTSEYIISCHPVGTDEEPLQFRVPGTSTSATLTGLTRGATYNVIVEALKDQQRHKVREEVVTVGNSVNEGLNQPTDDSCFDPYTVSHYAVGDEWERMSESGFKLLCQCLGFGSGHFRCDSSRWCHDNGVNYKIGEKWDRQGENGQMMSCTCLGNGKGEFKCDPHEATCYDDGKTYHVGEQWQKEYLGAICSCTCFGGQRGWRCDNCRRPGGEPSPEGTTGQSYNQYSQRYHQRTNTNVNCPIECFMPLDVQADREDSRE

[4] = target: T2, recombinant human C5a, P01031
T2 chain: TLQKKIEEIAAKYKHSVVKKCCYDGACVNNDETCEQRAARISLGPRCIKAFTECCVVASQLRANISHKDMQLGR

B1: CspA on whole cells of GBS strain COH1 (compared with the cspA mutant TOH121) (protein)
chain: DSVINKPSDIAVEQQVKDSPTSIANETPTNNTSSALASTAQDNLVTKANNNSPTETQPVTEPHSQATETFSPAANQPVESTQEVSKTPLTKQNLAVKPTPAISKETPQNIDSNKIITVPKVWNTGYKGEGTVVAIIDSGLDTNHDALQLNDSTKAKYQNEQQMNAAKAKAGINYGKWYNNKVIFGHNYVDVNTELKEVKSTSHGMHVTSIATANPSKKDTNELIYGVAPEAQVMFMRVFSDEKRGTGPALYVKAIEDAVKLGADSINLSLGGANGSLVNADDRLIKALEMARLAGVSVVIAAGNDGTFGSGASKPSALYPDYGLVGSPSTAREAISVASYNNTTLVNKVFNIIGLENNKNLNNGLAAYADPKVSDKTFEVGKQYDYVFVGKGNDNDYKDKTLNGKIALIERGDITFTKKVVNAINHGAVGAIIFNNKAGEANLTMSLDPEASAIPAIFTQKEFGDVLAKNNYKIVFNNIKNKQANPNAGVLSDFSSWGLTADGQLKPDLSAPGGSIYAAINDNEYDMMSGTSMASPHVAGATALVKQYLLKEHPELKKGDIERTVKYLLMSTAKAHLNKDTGAYTSPRQQGAGIIDVAAAVQTGLYLTGGENNYGSVTLGNIKDKISFDVTVHNINKVAKDLHYTTYLNTDQVKDGFVTLAPQQLGTFTGKTIRIEPGQTKTITIDIDVSKYHDMLKKVMPNGYFLEGYVRFTDPVDGGEVLSIPYVGFKGEFQNLEVLEKSIYKLVANKEKGFYFQPKQTNEVPGSEDYTALMTTSSEPIYSTDGTSPIQLKALGSYKSIDGKWILQLEQKGQPHLAISPNDDQNQDAVALKGVFLRNFNNLRAKVYRADDVNLQKPLWVSAPQAGDKNYYSGNTENPKSTFLYDTEWKGTTTDGIPLEDGKYKYVLTYYSDVPGSKPQQMVFDITLDRQAPTLTTATYDKDRRIFKARPAVEHGESGIFREQVFYLKKDKDGHYNSVLRQKGEDGILVEDNKVFIKQEKDGSFILPKEVNDFSHVYYTVEDYAGNLVSAKLEDLINIGNKNGLVNVKVFSPELNSNVDIDFSYSVKDDKGNVIKKQHHGKDLNLLKLPFGTYTFDLFLYDEERANLISPQSVTVTISEKDSLKDVLFKVNLLKKAALLVEFDKLLPKGATVQLVTKTNTVVDLPKATYSPTDYGKNIPVGDYRLNVTLPSGYSTLENLDDLLVSVKEGQVNLTKLTLINKAPLINALAEQTDIISQPVFYNAGTHLKNNYLANLEKAQTLIKNRVEQTSIDNAIAALRESRQALNGKETDTSLLAKAILAETEIKGNYQFVNASPLSQSTYINQVQLAKNLLQKPNVTQSEVDKALENLDIAKNQLNGHETDYSGLHHMIIKANVLKQTSSKYQNASQFAKENYNNLIKKAELLLSNRQATQAQVEELLNQIKATEQELDGRDRVSSAENYSQSLNDNDSLNTTPINPPNQPQALIFKKGMTKESEVAQKRVLGVTSQTDNQKIKTNKLPKTGESTPKITYTILLFSLSMLGLATIKLKSIKRE
- degradation of the test substrate (Coomassie-stained SDS-PAGE or Western blotting) [1]: No difference in the cleavage of the test substrates was observed for all substrates except fibrinogen when the mutant and wild-type strains were compared
- fibrinogen degradation assay (SDS-PAGE of supernatant after 16 h with whole GBS) [2]: COH1 cleaved the minor species (corresponding to the lower band of the doublet) of the α subunit, while the mutant did not cleave fibrinogen under the conditions employed
- degradation of the test substrate (Coomassie-stained SDS-PAGE or Western blotting) [3]: No difference in the cleavage of the test substrates was observed for all substrates except fibrinogen when the mutant and wild-type strains were compared
- C5a protease activity (C5a-stimulated PMN adherence to gelatin-coated plastic after preincubating C5a with GBS) [4]: inactivation of CspA did not appear to have a detectable effect on C5a activity
